Results from US20140335077A1, “Compositions and Methods for the Treatment of Cancer Using IGF-IR Antagonists and MAPK/ERK Inhibitors” (priority 2013, published 2014).

Legend:
Type in all cases: cell-based
OCM-1 = assay: PrestoBlue cell viability, anti-IGF-1R antibody with U0126, OCM-1 (uveal melanoma); settings: OCM-1 cells, 48 h
Description: (§1) Cells were incubated in 96 well tissue culture plates and cell viability was measured by PrestoBlue cell viability assay (Invitrogen, CA, USA) according to manufacturer's instructions. Fluorescence was measured with excitation at 560 nm and emission at 590 nm. Cell number was calculated from standard curves of fluorescence measurements from known numbers of cells. Triplicate cultures were performed on all experiments.
(§2) The effects of anti-IGF-1R antibodies/MEK inhibitor combination treatment on viability of different types of tumor cells were investigated using PrestoBlue cell viability assay (Invitrogen, CA, USA) according to manufacturer's instructions. (Table 3).
(§3) Cells were incubated in serum free medium for 12 h followed by pretreatment for 60 min without or with 0.5, 1, 3 or 5 μM of the ERK inhibitor U0126, and then treated without or with 100 ng/ml anti-IGF-1R antibodies (Figitumumab or αIR-3 (Calbiochem, US). Cells were incubated in 96 well tissue culture plates for 48 hours and cell viability was measured by PrestoBlue cell viability assay. Fluorescence was measured with excitation at 560 nm and emission at 590 nm. Cell number was calculated from standard curves of fluorescence measurements from known numbers of cells. Triplicate cultures were performed on all experiments. The inhibition induced by anti-IGF-1R antibodies treated cells was calculated as percentage of untreated cells.

[1] = target: T1, IGF-1R/β-arr1 association (Homo sapiens, UniProt P08069); assay: β-arrestin1 recruitment to IGF-1R in ES cell lines (immunoprecipitation, WB); settings: 10 min stimulation; all ES cell lines
T1 construct: endogenous in cells; host or cells: Ewing's sarcoma cell lines
Description: FIG. 2A-FIG. 2D. Mechanism of CP induced IGF-1R downregulation: β-arrestin1 recruitment and receptor ubiquitination. (A) Cells incubated in serum free medium for 12 h were treated with 0, 0.1 or 1 μg/ml CP for 24 h. Protein lysates were analyzed by WB for IGF-1R and GAPDH as a loading control. […] Protein lysates were analyzed by WB for IGF-1R and GAPDH as a loading control. Signals were quantified by densitometry, normalized to GAPDH and expressed as a percentage of the IGF-1R at 0 h. Data correspond to the mean±SEM from three independent experiments. […] IGF-1R was immunoprecipitated from lysates and analyzed by WB (IB) for ubiquitination (Ub) and IGF-1R as a loading control. Molecular weight markers in KDa are indicated to the left of the panels. (D) β-Arrestin1 (β-arr1) was immunoprecipitated from cell lysates prepared as for (C). Immunoprecipitated proteins were analyzed by WB for IGF-1R. The whole lysates were analyzed by WB for GAPDH as a loading control.
Cells were lysed with 500 μl lysis buffer (110 mM KOAc, 0.5% (v/v) Triton X-100, 100 mM NaCl, protease inhibitor cocktail tablet (Roche), buffering salts pH 7.4). 500 μg of protein was incubated with Dynabeads protein G (10 μl) (Invitrogen, CA, USA) and 1 μg antibody overnight at 4° C. on a rotator platform. […]
These trends were confirmed by densitometric quantification of multiple experiments (FIG. 2B, graphs). […]

[2] = test system: IGF-1R, AKT and ERK phosphorylation; assay: IGF-1R signaling activation in ES cell lines (WB for P-IGF-1R, P-AKT, P-ERK)
Colo 205 = assay: PrestoBlue cell viability, anti-IGF-1R antibody with U0126, Colo 205 (colon carcinoma); settings: Colo 205 cells, 48 h
Description: as §1, §2, §3

DU-145 = assay: PrestoBlue cell viability, anti-IGF-1R antibody with U0126, DU-145 (prostate carcinoma); settings: DU-145 cells, 48 h
Description: as §1, §2, §3

MIAPaCa2 = assay: PrestoBlue cell viability, anti-IGF-1R antibody with U0126, MIAPaCa2 (pancreatic cancer); settings: 48 h
Description: as §1, §2, §3

PC-3 = assay: PrestoBlue cell viability, anti-IGF-1R antibody with U0126, PC-3 (prostate carcinoma); settings: PC-3 cells, 48 h
Description: as §1, §2, §3

SKMel28 = assay: PrestoBlue cell viability, anti-IGF-1R antibody with U0126, SKMel28 (melanoma); settings: 48 h
Description: as §1, §2, §3

HEPG2 = assay: PrestoBlue cell viability, anti-IGF-1R antibody with U0126, HEPG2 (hepatic carcinoma); settings: 48 h
Description: as §1, §2, §3

DFB = assay: PrestoBlue cell viability, anti-IGF-1R antibody with U0126, DFB (melanoma); settings: 48 h
Description: as §1, §2, §3

[3] = U0126 0 μM (60 min pretreatment)
[4] = U0126 0.5 μM (60 min pretreatment)
[5] = U0126 1 μM (60 min pretreatment)
[6] = U0126 3 μM (60 min pretreatment)
[7] = U0126 5 μM (60 min pretreatment)
[8] = serum starved ES cells, stimulation up to 60 min

B1: CP-751,871: anti-IGF-1R antibody figitumumab (Pfizer), IGF-1R antagonist (antibody, chains of the INN, looked up)
heavy: EVQLLESGGGLVQPGGSLRLSCTASGFTFSSYAMNWVRQAPGKGLEWVSAISGSGGTTFYADSVKGRFTISRDNSRTTLYLQMNSLRAEDTAVYYCAKDLGWSDSYYYYYGMDVWGQGTTVTVSSASTKGPSVFPLAPCSRSTSESTAALGCLVKDYFPEPVTVSWNSGALTSGVHTFPAVLQSSGLYSLSSVVTVPSSNFGTQTYTCNVDHKPSNTKVDKTVERKCCVECPPCPAPPVAGPSVFLFPPKPKDTLMISRTPEVTCVVVDVSHEDPEVQFNWYVDGVEVHNAKTKPREEQFNSTFRVVSVLTVVHQDWLNGKEYKCKVSNKGLPAPIEKTISKTKGQPREPQVYTLPPSREEMTKNQVSLTCLVKGFYPSDIAVEWESNGQPENNYKTTPPMLDSDGSFFLYSKLTVDKSRWQQGNVFSCSVMHEALHNHYTQKSLSLSPG
light: DIQMTQFPSSLSASVGDRVTITCRASQGIRNDLGWYQQKPGKAPKRLIYAASRLHRGVPSRFSGSGSGTEFTLTISSLQPEDFATYYCLQHNSYPCSFGQGTKLEIKRTVAAPSVFIFPPSDEQLKSGTASVVCLLNNFYPREAKVQWKVDNALQSGNSQESVTEQDSKDSTYSLSSTLTLSKADYEKHKVYACEVTHQGLSSPVTKSFNRGEC
Percentage inhibition of antibody treated cells (100 ng/ml) (OCM-1; [3]): 22% | Percentage inhibition of antibody treated cells (100 ng/ml) (OCM-1; [4]): 28% | Percentage inhibition of antibody treated cells (100 ng/ml) (OCM-1; [5]): 35% | Percentage inhibition of antibody treated cells (100 ng/ml) (OCM-1; [6]): 46% | Percentage inhibition of antibody treated cells (100 ng/ml) (OCM-1; [7]): 55% | β-arr1 recruitment to the receptor compared with IGF-1 [1]: much more potent than IGF-1 in recruiting β-arr1 | AKT phosphorylation [2, 8]: undetectable | IGF-1R phosphorylation [2, 8]: undetectable | ERK phosphorylation ([2]; serum starved cells, up to 60 min, all ES cell lines): clear ERK phosphorylation signals | Percentage inhibition of antibody treated cells (100 ng/ml) (Colo 205; [3]): 21% | Percentage inhibition of antibody treated cells (100 ng/ml) (Colo 205; [4]): 28% | Percentage inhibition of antibody treated cells (100 ng/ml) (Colo 205; [5]): 34% | Percentage inhibition of antibody treated cells (100 ng/ml) (Colo 205; [6]): 45% | Percentage inhibition of antibody treated cells (100 ng/ml) (Colo 205; [7]): 67% | Percentage inhibition of antibody treated cells (100 ng/ml) (DU-145; [3]): 18% | Percentage inhibition of antibody treated cells (100 ng/ml) (DU-145; [4]): 22% | Percentage inhibition of antibody treated cells (100 ng/ml) (DU-145; [5]): 34% | Percentage inhibition of antibody treated cells (100 ng/ml) (DU-145; [6]): 54% | Percentage inhibition of antibody treated cells (100 ng/ml) (DU-145; [7]): 77% | Percentage inhibition of antibody treated cells (100 ng/ml) (MIAPaCa2; [3]): 27% | Percentage inhibition of antibody treated cells (100 ng/ml) (MIAPaCa2; [4]): 35% | Percentage inhibition of antibody treated cells (100 ng/ml) (MIAPaCa2; [5]): 55% | Percentage inhibition of antibody treated cells (100 ng/ml) (MIAPaCa2; [6]): 78% | Percentage inhibition of antibody treated cells (100 ng/ml) (MIAPaCa2; [7]): 89% | Percentage inhibition of antibody treated cells (100 ng/ml) (PC-3; [3]): 22% | Percentage inhibition of antibody treated cells (100 ng/ml) (PC-3; [4]): 24% | Percentage inhibition of antibody treated cells (100 ng/ml) (PC-3; [5]): 32% | Percentage inhibition of antibody treated cells (100 ng/ml) (PC-3; [6]): 45% | Percentage inhibition of antibody treated cells (100 ng/ml) (PC-3; [7]): 52% | Percentage inhibition of antibody treated cells (100 ng/ml) (SKMel28; [3]): 5% | Percentage inhibition of antibody treated cells (100 ng/ml) (SKMel28; [4]): 15% | Percentage inhibition of antibody treated cells (100 ng/ml) (SKMel28; [5]): 17% | Percentage inhibition of antibody treated cells (100 ng/ml) (SKMel28; [6]): 25% | Percentage inhibition of antibody treated cells (100 ng/ml) (SKMel28; [7]): 29% | Percentage inhibition of antibody treated cells (100 ng/ml) (HEPG2; [3]): 7% | Percentage inhibition of antibody treated cells (100 ng/ml) (HEPG2; [4]): 11% | Percentage inhibition of antibody treated cells (100 ng/ml) (HEPG2; [5]): 22% | Percentage inhibition of antibody treated cells (100 ng/ml) (HEPG2; [6]): 27% | Percentage inhibition of antibody treated cells (100 ng/ml) (HEPG2; [7]): 37% | Percentage inhibition of antibody treated cells (100 ng/ml) (DFB; [3]): 15% | Percentage inhibition of antibody treated cells (100 ng/ml) (DFB; [4]): 17% | Percentage inhibition of antibody treated cells (100 ng/ml) (DFB; [5]): 24% | Percentage inhibition of antibody treated cells (100 ng/ml) (DFB; [6]): 45% | Percentage inhibition of antibody treated cells (100 ng/ml) (DFB; [7]): 55%
